Results published in patent US20240270865A1 (INNATE PHARMA, published 2024).

B1: H2L2 (antibody, human IgG1, V domains shown)
VH: QIQLVQSGAEVKKPGASVKVSCKASGYAFTSYNMYWVRQAPGQSLEWMGYIDPYNGGSSYNLTFKGRVTITVDKSASTAYMELSSLRSEDTAVYYCARGYGNYKAWFAYWGQGTLVTVSS
VL: DIQMTQSPSSLSASVGDRVTITCKASQSVSNDVAWYQQKPGKAPKLLIYYASTRYTGVPDRFSGSGYGTDFTFTISSLQPEDIATYYCQQDYSSLTFGQGTKLEIK
notes: also called H2 variant
B2: H1L2 (antibody, human IgG1, V domains shown)
VH: QIQLVQSGAEVKKPGASVKVSCKASGYTFTSYNMYWVRQAPGQRLEWMGYIDPYNGGSSYNLTFKGRVTITRDKSASTAYMELSSLRSEDTAVYYCARGYGNYKAWFAYWGQGTLVTVSS
VL: DIQMTQSPSSLSASVGDRVTITCKASQSVSNDVAWYQQKPGKAPKLLIYYASTRYTGVPDRFSGSGYGTDFTFTISSLQPEDIATYYCQQDYSSLTFGQGTKLEIK
notes: also called H1 variant
B3: H3L1 (antibody, human IgG1, V domains shown)
VH: QIQLVQSGAEVKKPGASVKVSCKASGYAFTSYNMYWVRQAPGQSLEWIGYIDPYNGGSSYNLTFKGKATITVDKSASTAYMELSSLRSEDTAVYYCARGYGNYKAWFAYWGQGTLVTVSS
VL: DIQMTQSPSSLSASVGDRVTITCKASQSVSNDVAWYQQKPGKAPKLLIYYASTRYTGVPSRFSGSGYGTDFTFTISSLQPEDIATYYCQQDYSSLTFGQGTKLEIK
notes: also called H3 variant
B4: H4L1 (antibody, human IgG1, V domains shown)
VH: QIQLVQSGAEVKKPGASVKVSCKASGYAFASYNMYWVRQAPGQSLEWIGYIDPYNGGSSYNLTFKGKATLTVDKSASTAYMELSSLRSEDTAVYYCARGYGNYKAWFAYWGQGTLVTVSS
VL: DIQMTQSPSSLSASVGDRVTITCKASQSVSNDVAWYQQKPGKAPKLLIYYASTRYTGVPSRFSGSGYGTDFTFTISSLQPEDIATYYCQQDYSSLTFGQGTKLEIK
notes: also called H4 variant
B5: H3L4 (antibody, human IgG1, V domains shown)
VH: QIQLVQSGAEVKKPGASVKVSCKASGYAFTSYNMYWVRQAPGQSLEWIGYIDPYNGGSSYNLTFKGKATITVDKSASTAYMELSSLRSEDTAVYYCARGYGNYKAWFAYWGQGTLVTVSS
VL: DVQMTQSPSSLSASVGDRVTITCKASQSVSNDVAWYQQKPGKAPKLLIYYASTRYTGVPDRFSGSGYGTDFTFTISSLQPEDIATYFCQQDYSSLTFGQGTKLEIK
notes: also called H3 variant
B6: H4L2 (antibody, human IgG1, V domains shown)
VH: QIQLVQSGAEVKKPGASVKVSCKASGYAFASYNMYWVRQAPGQSLEWIGYIDPYNGGSSYNLTFKGKATLTVDKSASTAYMELSSLRSEDTAVYYCARGYGNYKAWFAYWGQGTLVTVSS
VL: DIQMTQSPSSLSASVGDRVTITCKASQSVSNDVAWYQQKPGKAPKLLIYYASTRYTGVPDRFSGSGYGTDFTFTISSLQPEDIATYYCQQDYSSLTFGQGTKLEIK
notes: also called H4 variant
B7: H3L3 (antibody, human IgG1, V domains shown)
VH: QIQLVQSGAEVKKPGASVKVSCKASGYAFTSYNMYWVRQAPGQSLEWIGYIDPYNGGSSYNLTFKGKATITVDKSASTAYMELSSLRSEDTAVYYCARGYGNYKAWFAYWGQGTLVTVSS
VL: DVQMTQSPSSLSASVGDRVTITCKASQSVSNDVAWYQQKPGKAPKLLIYYASTRYTGVPDRFSGSGYGTDFTFTISSLQPEDIATYYCQQDYSSLTFGQGTKLEIK
notes: also called H3 variant
B8: H1L4 (antibody, human IgG1, V domains shown)
VH: QIQLVQSGAEVKKPGASVKVSCKASGYTFTSYNMYWVRQAPGQRLEWMGYIDPYNGGSSYNLTFKGRVTITRDKSASTAYMELSSLRSEDTAVYYCARGYGNYKAWFAYWGQGTLVTVSS
VL: DVQMTQSPSSLSASVGDRVTITCKASQSVSNDVAWYQQKPGKAPKLLIYYASTRYTGVPDRFSGSGYGTDFTFTISSLQPEDIATYFCQQDYSSLTFGQGTKLEIK
notes: also called H1 variant
B9: H1L3 (antibody, human IgG1, V domains shown)
VH: QIQLVQSGAEVKKPGASVKVSCKASGYTFTSYNMYWVRQAPGQRLEWMGYIDPYNGGSSYNLTFKGRVTITRDKSASTAYMELSSLRSEDTAVYYCARGYGNYKAWFAYWGQGTLVTVSS
VL: DVQMTQSPSSLSASVGDRVTITCKASQSVSNDVAWYQQKPGKAPKLLIYYASTRYTGVPDRFSGSGYGTDFTFTISSLQPEDIATYYCQQDYSSLTFGQGTKLEIK
notes: also called H1 variant
B10: H4L3 (antibody, human IgG1, V domains shown)
VH: QIQLVQSGAEVKKPGASVKVSCKASGYAFASYNMYWVRQAPGQSLEWIGYIDPYNGGSSYNLTFKGKATLTVDKSASTAYMELSSLRSEDTAVYYCARGYGNYKAWFAYWGQGTLVTVSS
VL: DVQMTQSPSSLSASVGDRVTITCKASQSVSNDVAWYQQKPGKAPKLLIYYASTRYTGVPDRFSGSGYGTDFTFTISSLQPEDIATYYCQQDYSSLTFGQGTKLEIK
notes: also called H4 variant
B11: H3L2 (antibody, human IgG1, V domains shown)
VH: QIQLVQSGAEVKKPGASVKVSCKASGYAFTSYNMYWVRQAPGQSLEWIGYIDPYNGGSSYNLTFKGKATITVDKSASTAYMELSSLRSEDTAVYYCARGYGNYKAWFAYWGQGTLVTVSS
VL: DIQMTQSPSSLSASVGDRVTITCKASQSVSNDVAWYQQKPGKAPKLLIYYASTRYTGVPDRFSGSGYGTDFTFTISSLQPEDIATYYCQQDYSSLTFGQGTKLEIK
notes: also called H3 variant
B12: H2L3 (antibody, human IgG1, V domains shown)
VH: QIQLVQSGAEVKKPGASVKVSCKASGYAFTSYNMYWVRQAPGQSLEWMGYIDPYNGGSSYNLTFKGRVTITVDKSASTAYMELSSLRSEDTAVYYCARGYGNYKAWFAYWGQGTLVTVSS
VL: DVQMTQSPSSLSASVGDRVTITCKASQSVSNDVAWYQQKPGKAPKLLIYYASTRYTGVPDRFSGSGYGTDFTFTISSLQPEDIATYYCQQDYSSLTFGQGTKLEIK
notes: also called H2 variant
B13: H2L4 (antibody, human IgG1, V domains shown)
VH: QIQLVQSGAEVKKPGASVKVSCKASGYAFTSYNMYWVRQAPGQSLEWMGYIDPYNGGSSYNLTFKGRVTITVDKSASTAYMELSSLRSEDTAVYYCARGYGNYKAWFAYWGQGTLVTVSS
VL: DVQMTQSPSSLSASVGDRVTITCKASQSVSNDVAWYQQKPGKAPKLLIYYASTRYTGVPDRFSGSGYGTDFTFTISSLQPEDIATYFCQQDYSSLTFGQGTKLEIK
notes: also called H2 variant
B14: H2L1 (antibody, human IgG1, V domains shown)
VH: QIQLVQSGAEVKKPGASVKVSCKASGYAFTSYNMYWVRQAPGQSLEWMGYIDPYNGGSSYNLTFKGRVTITVDKSASTAYMELSSLRSEDTAVYYCARGYGNYKAWFAYWGQGTLVTVSS
VL: DIQMTQSPSSLSASVGDRVTITCKASQSVSNDVAWYQQKPGKAPKLLIYYASTRYTGVPSRFSGSGYGTDFTFTISSLQPEDIATYYCQQDYSSLTFGQGTKLEIK
notes: also called H2 variant
B15: H1L1 (antibody, human IgG1, V domains shown)
VH: QIQLVQSGAEVKKPGASVKVSCKASGYTFTSYNMYWVRQAPGQRLEWMGYIDPYNGGSSYNLTFKGRVTITRDKSASTAYMELSSLRSEDTAVYYCARGYGNYKAWFAYWGQGTLVTVSS
VL: DIQMTQSPSSLSASVGDRVTITCKASQSVSNDVAWYQQKPGKAPKLLIYYASTRYTGVPSRFSGSGYGTDFTFTISSLQPEDIATYYCQQDYSSLTFGQGTKLEIK
notes: also called H1 variant
B16: H4L4 (antibody, human IgG1, V domains shown)
VH: QIQLVQSGAEVKKPGASVKVSCKASGYAFASYNMYWVRQAPGQSLEWIGYIDPYNGGSSYNLTFKGKATLTVDKSASTAYMELSSLRSEDTAVYYCARGYGNYKAWFAYWGQGTLVTVSS
VL: DVQMTQSPSSLSASVGDRVTITCKASQSVSNDVAWYQQKPGKAPKLLIYYASTRYTGVPDRFSGSGYGTDFTFTISSLQPEDIATYFCQQDYSSLTFGQGTKLEIK
notes: also called H4 variant

Each binder was assayed against T1, recombinant human soluble CD73 protein (cloned huCD73 with C-terminal 6xHis tag) (human, UniProt P21589 27-547) (assay: SPR, recombinant CD73 protein).
T1 construct: also called recombinant CD73 protein; CD73 recombinant protein
T1 sequence: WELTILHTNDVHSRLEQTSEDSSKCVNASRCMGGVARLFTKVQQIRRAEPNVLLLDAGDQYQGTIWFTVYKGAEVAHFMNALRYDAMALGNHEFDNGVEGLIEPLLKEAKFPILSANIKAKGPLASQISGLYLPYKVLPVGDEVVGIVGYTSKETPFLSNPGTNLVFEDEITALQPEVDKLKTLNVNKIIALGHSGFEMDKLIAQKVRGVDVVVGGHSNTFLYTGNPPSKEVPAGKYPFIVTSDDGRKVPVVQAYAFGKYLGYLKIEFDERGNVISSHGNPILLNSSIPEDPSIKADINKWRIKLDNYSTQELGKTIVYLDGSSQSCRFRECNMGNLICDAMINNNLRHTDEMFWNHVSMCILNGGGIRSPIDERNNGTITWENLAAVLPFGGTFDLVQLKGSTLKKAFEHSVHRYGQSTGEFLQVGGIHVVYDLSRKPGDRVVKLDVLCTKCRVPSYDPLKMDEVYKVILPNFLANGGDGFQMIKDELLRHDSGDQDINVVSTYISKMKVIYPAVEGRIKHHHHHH
Experimental: SPR measurements were performed on a Biacore™ T200 apparatus at 25° C. Protein-A (GE Healthcare) was immobilized on a Sensor Chip CM5 (GE Healthcare). […] The entire sensorgram sets were fitted using the 1:1 kinetic binding model. Bivalent affinities and kinetic association and dissociation rate constants are calculated.

Binder	binding result
B1	binds
B2	binds
B3	binds
B4	binds
B5	binds
B6	binds
B7	binds
B8	binds
B9	binds
B10	binds
B11	binds
B12	binds
B13	binds
B14	binds
B15	binds
B16	binds
